# Test: soluble on expression in E. coli; label from the status in PepcDB or PDB records
row,Sequence,soluble on expression in E. coli
1,MGSDKIHHHHHHVLQLESIGVMDNYNKDLTPDQASAFLEVVDASLRIKKKAQLFSWLQGHFQFLLPHEVLLCGFAVGVGRNFSLETFSSTRYVTDAQVAIAMHERTGVVMKAIQAWRQTSQPVLIDPYLKDGNFGRFTVPKIDQVNLQESELRNIAAYGLSSADGSISSFFSFSRISGELNASHAYMLELLVPYLHSVLMRVSDGVFNFGDAMGEGVNAGIITPREKEILQWVHTGKSNWEIATILEISPLTVKNHMQNILRKLDVQNRSHAAAKAYRLGLIRH,not soluble
2,AEEGAVAVCVRVRPLNSREESLGETAQVYWKTDNNVIYQVDGSKSFNFDRVFHGNETTKNVYEEIAAPIIDSAIQGYNGTIFAYGQTASGKTYTMMGSEDHLGVIPRAIHDIFQKIKKFPDREFLLRVSYMEIYNETITDLLCGTQKMKPLIIREDVNRNVYVADLTEEVVYTSEMALKWITKGEKSRHYGETKMNQRSSRSHTIFRMILESREKGEPSNCEGSVKVSHLNLVDLAGSERAAQTGAAGVRLKEGCNINRSLFILGQVIKKLSDGQVGGFINYRDSKLTRILQNSLGGNPKTRIICTITPVSFDETLTALQFASTAKYMKNTPYVNEVSTDEALEHHHHHH,soluble
3,MELDGKAPSHRNLNVQTWSTAEGAKVLFVEARELPMFDLRLIFAAGSSQDGNAPGVALLTNAMLNEGVAGKDVGAIAQGFEGLGADFGNGAYKDMAVASLRSLSAVDKREPALKLFAEVVGKPTFPADSLARIKNQMLAGFEYQKQNPGKLASLELMKRLYGTHPYAHASDGDAKSIPPITLAQLKAFHAKAYAAGNVVIALVGDLSRSDAEAIAAQVSAALPKGPALAKIEQPAEPKASIGHIEFPSSQTSLMLAQLGIDRDDPDYAAVSLGNQILGGGGFGTRLMSEVREKRGLTYGVYSGFTPMQARGPFMINLQTRAEMSEGTLKLVQDVFAEYLKNGPTQKELDDAKRELAGSFPLSTASNADIVGQLGAMGFYNLPLSYLEDFMRQSQELTVEQVKAAMNKHLNVDKMVIVSAGPTVAQKPLEHHHHHH,soluble
4,MVKTTEVVSEVSKVAGVRPWAGIFVVEIQEDILADEFTFEALMRTLPLASQARILNKKSFHDRCSNLCSQLLQLFGCSIVTGLNFQELKFDKGSFGKPFLDNNRFLPFSMTIGEQYVAMFLVKCVSTDEYQDVGIDIASPCNYGGREELELFKEVFSEREFNGLLKASDPCTIFTYLWSLKESYTKFTGTGLNTDLSLIDFGAISFFPAEGASMCITLDEVPLIFHSQWFNNEIVTICMPKSISDKINTNRPKLYNISLSTLIDYFIENDGL,soluble
5,MLDKVIYSLLRTQDPGLAQELYFRLQAKEQSFAEVAQKYSQGPESQTGGLVGPVEQSSLHPAMVQLLSSCQPGQISPPTRITELEHHHHHH,not soluble
6,MGSDKIHHHHHHACSISYKFNGSSIDYTKVKTISFENFPNRSAGFVWGPMENMFNTALQDIYMQQTRLKQVKRSGDLQLSGEITNYEAFNKGIGSDGYSSMVELRMTVRVNFVNSSNPTENMNGQQFSASREYNSNQQLSAVQDELVNQMIKEIVEQIFNATVANW,not soluble
7,MHHHHHHSSGVDLGTENLYFQSMQGTNPYLTFHCVNQGTILLDLAPEDKEYQSVEEEMQSTIREHRDGGNAGGIFNRYNVIRIQKVVNKKLRERFCHRQKEVSEENHNHHNERMLFHGSPFINAIIHKGFDERHAYIGGMFGAGIYFAENSSKSNQYVYGIGGGTGCPTHKDRSCYICHRQMLFCRVTLGKSFLQFSTIKMAHAPPGHHSVIGRPSVNGLAYAEYVIYRGEQAYPEYLITYQIMKPEAPSQTATAAEQ,soluble
8,MGSDKIHHHHHHMHHVVGVRFKKAGKIYYFSPGDLDIPRGESVIVETSRGVEYGNVVIEKKTVGDNDVVLPLKQVIRVATEKDKLAVQENKEAAKKAYDVCVQKIMEHQLDMKLVDVEYTFDRNKVLFYFTADGRIDFRELVKDLASVFRTRIELRQIGVRDEAKMLGGIGPCGRILCCSSFLGDFEPVSIKMAKDQNLSLNPAKISGLCGRLMCCLKYENDMYESAKQELPDLGETIDTPHGKGKVVGLNMLERLVQVHLFEGERVLEFSLEELLERGAVSAEATE,not soluble
9,MNLRIPWKEVYYLGYNMGNYIKISEPELLFVLRNKPQIKDRLKLDEKTIIKEGVKKYKNFWEIYYTVKDLILRGYRVRFDGFFIELYEKGIIPGTIEQDYLVYPVSGEIRMTWGELLDIYNKAIARKSKFMLAIVDSEGDVTYYEFRKLRSNK,soluble
10,SLVSSMHDLLLRNVRPMAGEACDIMIRNGKITGFGKFDAEPGLPVEDGKGAIAVPGLIDAHTHLDKTTWGMPWHVNNRAAILRERIDFERENRVQIGIDPHRQSMRHAIGLAANGGTHIRSHVDIDPTHGLKLVEGIWETREKLDGIIDIEVVAFPQSGVMVMPGTVELLDEALKQGCEVLGGIDPCGIDRDPKGQLDILFQLATKHGVPIDIHLHEAADLGAFTMELIFERIRANGMQGNVAISHAFALGMNDYLRVGRLIDEIARLDVAILTTGAPSASVPSIMRLKEAGVRVGGGCDGIRDTWGPWGQPDMLDRAKIIGMKNGLRSDVELAHVLHVVSRGGADVMGIEDYGMEIGCAADFTLLTGETLAHAVVDITPRPLVVKGGRVTARNGKAIVEAP,soluble
11,MENKSPMKGSEAENAKDQLKKKTAEEFAQMAIINRAFSAESTEDPPPLAQKRSESTLKPLNDELKSVPLVRAFNSAENQLDPKNQNAAKK,not soluble
12,MSNEVEQKKNIKTINDLPGISQTVINKLIEAGYSSLETLAVASPQDLSVAAGIPLSTAQKIIKEARDALDIRFKTALEVKKERMNVKKISTGSQALDGLLAGGIETRTMTEFFGEFGSGKTQLCHQLSVNVQLPPEKGGLSGKAVYIDTEGTFRWERIENMAKALGLDIDNVMNNIYYIRAINTDHQIAIVDDLQELVSKDPSIKLIVVDSVTSHFRAEYPGRENLAVRQQKLNKHLHQLTRLAEVYDIAVIITNQVMARPDMFYGDPTVAVGGHTLYHVPGIRIQLKKSRGNRRIARVVDAPHLPEGEVVFALTEEGIRDAEE,soluble
13,MSLEKKHSVNVEIENPPGRFFIPEDYVQNPVERLRLYRRLASSLDEEDLEEILEEMKDRFGEPPEEVKLLVDYFRLRVRASKLGIKKIRFDHSMVEIFPSRNSPFLNHPRYDRRSGSVVLYTRKDPVEFLMDMKGIITITTDPNSSSVDKLAAALEHHHHHH,soluble
14,SMHPVAGSNPAFCGPGKPSCLNEDAMRAADQFDLYSSQQNKYSHTVSHKPMVCQRQDPLNETHLQPTSGRNIEIKDELKKKKNLNRSGKRGRPSGTTKSAGYRTSTGRPLGTTKAAGFKTSPGRPLGTTKAAGYKVSPGRPPGSIKALSRLADLGYGCGTAAFPYPMMHSRVVHGLQETSGEVKPPSE,soluble
15,MAKKVAAQIKLQLPAGKATPAPPVGPALGQHGVNIMEFCKRFNAETADKAGMILPVVITVYEDKSFTFIIKTPPASFLLKKAAGIEKGSSEPKRKIVGKVTRKQIEEIAKTKMPDLNANSLEAAMKIIEGTAKSMGIEVVD,soluble
16,MGSDKIHHHHHHMNTAPFKLEADFASALPTMAAPWQGEEAPNPELVILNDDLAYSLGLDPTWLRTPEGVQFLLGLNPEPLTKAVAQAYSGHQFGQFVASLGDGRALLLGEARSADGVLHDIHLKGSGRTQFSRGADGRAVLGPVLREYIISEAMHALGVPTTRSLAVISTGRKIQRGSVAPGAVLVRVATSLIRVGSFQYSNISGGIELSQHLANYTITRHFPSLVAELSAPTPATYVSLFKAILQRQADTVGKWTRLGFVHGALNTDNTLISGETVDYGPCAFMERYRGDAKFSSIDTYGRYKFENQPMILGWNMARLVETLLPLLGATPDEGMTAAQEALVEFDDLCEQAIRKEFATALGLDESDTGTVEQFRELLYLHNPDITTLLRALTDNTAPPSGFEAFVHDWKTQDPDIEAMRAVNPLFIPRNHLVEAALADAVEGNLEKFHELLAAVTNPFDPTAGPDELRLPSEEGFEEDYMTFCGT,not soluble
17,TAAVALVKANENAAAILNLKNAIQKTNAAVADVVQATQSLGTAVQAVQDHINSVVSPAITAANY,soluble
